Source: paper PMC5158082 (PLoS Pathogens, 2016)

Tests used:
SpaR^STREP = target: T1, SpaR^STREP (Salmonella enterica serovar Typhimurium, UniProt P40701 1-263); assay: native MS; conditions: both partners purified
T1 construct: also called SpaR^STREP of the SpaPR^STREP complex
T1 sequence: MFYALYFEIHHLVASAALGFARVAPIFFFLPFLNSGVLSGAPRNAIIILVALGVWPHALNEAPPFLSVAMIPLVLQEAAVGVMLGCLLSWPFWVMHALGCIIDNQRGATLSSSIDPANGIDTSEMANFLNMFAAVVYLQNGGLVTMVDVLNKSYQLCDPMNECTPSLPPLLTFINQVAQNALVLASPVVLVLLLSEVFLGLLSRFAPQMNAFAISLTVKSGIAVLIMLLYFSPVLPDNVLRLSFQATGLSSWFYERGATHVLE

native MS = target: the molecule itself; assay: native MS

B1: SpaP (untagged, co-expressed in E. coli) (natural protein)
chain: MGNDISLIALLAFSTLLPFIIASGTCFVKFSIVFVMVRNALGLQQIPSNMTLNGVALLLSMFVMWPIMHDAYVYFEDEDVTFNDISSLSKHVDEGLDGYRDYLIKYSDRELVQFFENAQLKRQYGEETETVKRDKDEIEKPSIFALLPAYALSEIKSAFKIGFYLYLPFVVVDLVVSSVLLALGMMMMSPVTISTPIKLVLFVALDGWTLLSKGLILQYMDIAT
notes: also called SpaP of the SpaPR complex; SpaP5R1
**Q.** How did the “stoichiometry N” value (SpaR^STREP) turn out when B1 was run?
**A.** The value was 5 SpaP per SpaR^STREP.

**Q.** What about the “stoichiometry N” value (native MS) of the same binder?
**A.** Its value is 5.
